Source: patent CN111909274A
One block for each molecule: values may come before it.

How the values were obtained:
[1] = molecular target: GPC3ΔGPI-FLAG重组蛋白 (GPC3 without its GPI region, C-terminal FLAG tag) (Homo sapiens (Human)) (UniProt P51654); assay: ELISA on coated GPC3ΔGPI-FLAG, antibody pre-treated 2 h at 70℃, reference 4℃
[2] = molecular target: GPC3ΔGPI-FLAG重组蛋白 (GPC3 without its GPI region, C-terminal FLAG tag) (Homo sapiens (Human)) (UniProt P51654); assay: ELISA on coated GPC3ΔGPI-FLAG, antibody pre-treated 2 h at 90℃, reference 4℃
[3] = molecular target: GPC3ΔGPI-FLAG重组蛋白 (GPC3 without its GPI region, C-terminal FLAG tag) (Homo sapiens (Human)) (UniProt P51654); assay: ELISA on coated GPC3ΔGPI-FLAG, nanobody pre-treated 2 h at 70℃, reference 4℃
[4] = molecular target: GPC3ΔGPI-FLAG重组蛋白 (GPC3 without its GPI region, C-terminal FLAG tag) (Homo sapiens (Human)) (UniProt P51654); assay: ELISA on coated GPC3ΔGPI-FLAG, nanobody pre-treated 2 h at 90℃, reference 4℃
[5] = molecular target: mCherry-GPC3 (mCherry fused to the N-terminus of GPC3, stably expressed on HEK293T cells) (UniProt P51654); assay: immunofluorescence colocalisation on HEK293T cells expressing mCherry-GPC3, confocal microscopy

抗原结合能力下降 (fall of OD450 against the 4℃ sample) [1]: 42.9%
抗原结合能力下降 (fall of OD450 against the 4℃ sample) [2]: 58.3%
Molecule: HN3-hFc融合抗体 (known GPC3 nanobody HN3 fused to human Fc, bought from Creative Biolabs) (Fc fusion)

抗原结合能力下降 (fall of OD450 against the 4℃ sample) [3]: 16.7%
抗原结合能力下降 (fall of OD450 against the 4℃ sample) [4]: 30.8%
皮尔森相关系数 (Pearson correlation of mCherry and Alexa Fluor 488 signals) [5]: 0.929
B1: G11纳米抗体 (GPC3 nanobody G11, His-tagged, from pET22b-G11-His) (VHH, not shown: small tags and cut ends)
VHH: QVQLVESGGALVQPGGSLRLSCAASSSDFSRNALRWYRQAPGKEREWVCGINWTGSGYAYEDSVKGRFTCSRDDARNTVYLQLNSLKPEDTAVYYCAPLACSNCFPYKHYVYWGQGTQVTVSS
